In US20260167699A1 (Chugai, published 2026):

T1: FcγRIIb extracellular domain with C-terminal His tag (human, UniProt P31994 43-217)
T1 construct: extracellular domain; also called 2b; CD32
T1 sequence: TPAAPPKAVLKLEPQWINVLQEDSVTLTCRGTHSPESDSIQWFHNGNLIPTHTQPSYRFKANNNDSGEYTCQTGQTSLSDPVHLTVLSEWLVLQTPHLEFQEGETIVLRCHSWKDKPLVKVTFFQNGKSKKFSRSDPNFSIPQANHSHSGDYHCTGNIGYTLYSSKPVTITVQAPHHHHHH

T2: FcγRIIa(H) extracellular domain with C-terminal His tag (human, UniProt P12318 34-217)
T2 construct: extracellular domain; H131 allotype; also called 2aH; CD32
T2 sequence: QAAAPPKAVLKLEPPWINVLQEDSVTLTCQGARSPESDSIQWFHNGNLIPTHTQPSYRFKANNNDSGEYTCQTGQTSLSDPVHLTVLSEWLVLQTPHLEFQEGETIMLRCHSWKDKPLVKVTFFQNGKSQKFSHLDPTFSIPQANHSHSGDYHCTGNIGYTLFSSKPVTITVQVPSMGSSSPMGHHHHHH

T3: FcγRIIa(R) extracellular domain with C-terminal His tag (human, UniProt P12318 34-217)
T3 construct: extracellular domain; R131 allotype; also called 2aR; CD32
T3 sequence: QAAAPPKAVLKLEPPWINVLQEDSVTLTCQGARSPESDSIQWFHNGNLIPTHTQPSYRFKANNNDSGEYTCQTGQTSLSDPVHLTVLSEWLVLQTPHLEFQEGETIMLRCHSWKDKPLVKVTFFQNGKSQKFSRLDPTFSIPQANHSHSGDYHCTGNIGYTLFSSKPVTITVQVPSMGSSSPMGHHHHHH


Columns and labels:
Assay in all cases: SPR; % of GpH7-A5/GpH7-B3/GpL16-k0
[1] = molecular target: T1, FcγRIIb extracellular domain with …
[2] = molecular target: T2, FcγRIIa(H) extracellular domain with …
[3] = molecular target: T4, FcγRIa extracellular domain with C-terminal His tag (human, UniProt P12314 16-292)
T4 construct: extracellular domain; also called 1a; CD64

[4] = molecular target: T5, FcγRIIIa extracellular domain with C-terminal His tag (human, UniProt P08637 17-208)
T5 construct: extracellular domain; also called 3a; CD16

[5] = molecular target: T3, FcγRIIa(R) extracellular domain with …

T4 sequence (P12314 other isoform, or with tags, fused parts or gaps): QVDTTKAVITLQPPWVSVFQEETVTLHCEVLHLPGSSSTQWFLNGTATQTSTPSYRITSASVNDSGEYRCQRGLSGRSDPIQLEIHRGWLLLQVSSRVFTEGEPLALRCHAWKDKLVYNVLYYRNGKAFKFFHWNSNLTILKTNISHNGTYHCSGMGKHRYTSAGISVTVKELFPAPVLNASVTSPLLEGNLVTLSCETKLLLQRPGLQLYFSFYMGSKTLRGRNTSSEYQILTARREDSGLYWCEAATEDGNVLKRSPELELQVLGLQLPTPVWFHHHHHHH
T5 sequence (P08637 other isoform, or with tags, fused parts or gaps): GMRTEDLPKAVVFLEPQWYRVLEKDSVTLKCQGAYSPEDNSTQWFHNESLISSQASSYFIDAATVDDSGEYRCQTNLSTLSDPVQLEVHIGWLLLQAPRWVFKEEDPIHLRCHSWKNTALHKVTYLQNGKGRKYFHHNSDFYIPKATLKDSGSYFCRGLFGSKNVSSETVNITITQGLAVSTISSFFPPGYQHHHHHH

| Binder | He/Con 2b [1] [%] | He/Con 2aH [2] [%] | He/Con 1a [3] [%] | He/Con 3a [4] [%] | He/Con 2aR [5] [%] |
| --- | --- | --- | --- | --- | --- |
| GpH7-A5/GpH7-B3 variant E333_05P/GpL16-k0 (antibody, human IgG1, kappa, heterodimerized IgG1 (He Ab), mutation in one H chain only; also called He Ab) heavy 1: not shown heavy 2: not shown light: DIVMTQSPLSLPVTPGEPASISCQASESLVHSNRNTYLHWYLQKPGQSPQLLIYKVSNRFSGVPDRFSGSGSGTDFTLKISRVEAEDVGVYYCSQNTHVPPTFGQGTKVEIERTVAAPSVFIFPPSDEQLKSGTASVVCLLNNFYPREAKVQWKVDNALQSGNSQESVTEQDSKDSTYSLSSTLTLSKADYEKHKVYACEVTHQGLSSPVTKSFNRGEC | 126 | 112 | 96.9 | 100 | 143 |
| GpH7-A5/GpH7-B3 variant E333_11K/GpL16-k0 (antibody, human IgG1, kappa, heterodimerized IgG1 (He Ab), mutation in one H chain only; also called He Ab) heavy 1: not shown heavy 2: not shown light: DIVMTQSPLSLPVTPGEPASISCQASESLVHSNRNTYLHWYLQKPGQSPQLLIYKVSNRFSGVPDRFSGSGSGTDFTLKISRVEAEDVGVYYCSQNTHVPPTFGQGTKVEIERTVAAPSVFIFPPSDEQLKSGTASVVCLLNNFYPREAKVQWKVDNALQSGNSQESVTEQDSKDSTYSLSSTLTLSKADYEKHKVYACEVTHQGLSSPVTKSFNRGEC | 104 | 112 | 96.6 | 97.7 | 128 |
| GpH7-A5/GpH7-B3 variant E333_16H/GpL16-k0 (antibody, human IgG1, kappa, heterodimerized IgG1 (He Ab), mutation in one H chain only; also called He Ab) heavy 1: not shown heavy 2: not shown light: DIVMTQSPLSLPVTPGEPASISCQASESLVHSNRNTYLHWYLQKPGQSPQLLIYKVSNRFSGVPDRFSGSGSGTDFTLKISRVEAEDVGVYYCSQNTHVPPTFGQGTKVEIERTVAAPSVFIFPPSDEQLKSGTASVVCLLNNFYPREAKVQWKVDNALQSGNSQESVTEQDSKDSTYSLSSTLTLSKADYEKHKVYACEVTHQGLSSPVTKSFNRGEC | 108 | 114 | 95.4 | 106 | 119 |
| GpH7-A5/GpH7-B3 variant E333_19Q/GpL16-k0 (antibody, human IgG1, kappa, heterodimerized IgG1 (He Ab), mutation in one H chain only; also called He Ab) heavy 1: not shown heavy 2: not shown light: DIVMTQSPLSLPVTPGEPASISCQASESLVHSNRNTYLHWYLQKPGQSPQLLIYKVSNRFSGVPDRFSGSGSGTDFTLKISRVEAEDVGVYYCSQNTHVPPTFGQGTKVEIERTVAAPSVFIFPPSDEQLKSGTASVVCLLNNFYPREAKVQWKVDNALQSGNSQESVTEQDSKDSTYSLSSTLTLSKADYEKHKVYACEVTHQGLSSPVTKSFNRGEC | 110 | 113 | 93.7 | 101 | 130 |
| GpH7-A5/GpH7-B3 variant E333_14T/GpL16-k0 (antibody, human IgG1, kappa, heterodimerized IgG1 (He Ab), mutation in one H chain only; also called He Ab) heavy 1: not shown heavy 2: not shown light: DIVMTQSPLSLPVTPGEPASISCQASESLVHSNRNTYLHWYLQKPGQSPQLLIYKVSNRFSGVPDRFSGSGSGTDFTLKISRVEAEDVGVYYCSQNTHVPPTFGQGTKVEIERTVAAPSVFIFPPSDEQLKSGTASVVCLLNNFYPREAKVQWKVDNALQSGNSQESVTEQDSKDSTYSLSSTLTLSKADYEKHKVYACEVTHQGLSSPVTKSFNRGEC | 111 | 115 | 96.7 | 100 | 135 |
| GpH7-A5/GpH7-B3 variant E333_13S/GpL16-k0 (antibody, human IgG1, kappa, heterodimerized IgG1 (He Ab), mutation in one H chain only; also called He Ab) heavy 1: not shown heavy 2: not shown light: DIVMTQSPLSLPVTPGEPASISCQASESLVHSNRNTYLHWYLQKPGQSPQLLIYKVSNRFSGVPDRFSGSGSGTDFTLKISRVEAEDVGVYYCSQNTHVPPTFGQGTKVEIERTVAAPSVFIFPPSDEQLKSGTASVVCLLNNFYPREAKVQWKVDNALQSGNSQESVTEQDSKDSTYSLSSTLTLSKADYEKHKVYACEVTHQGLSSPVTKSFNRGEC | 106 | 115 | 97.6 | 106 | 125 |
| GpH7-A5/GpH7-B3 variant E333_15Y/GpL16-k0 (antibody, human IgG1, kappa, heterodimerized IgG1 (He Ab), mutation in one H chain only; also called He Ab) heavy 1: not shown heavy 2: not shown light: DIVMTQSPLSLPVTPGEPASISCQASESLVHSNRNTYLHWYLQKPGQSPQLLIYKVSNRFSGVPDRFSGSGSGTDFTLKISRVEAEDVGVYYCSQNTHVPPTFGQGTKVEIERTVAAPSVFIFPPSDEQLKSGTASVVCLLNNFYPREAKVQWKVDNALQSGNSQESVTEQDSKDSTYSLSSTLTLSKADYEKHKVYACEVTHQGLSSPVTKSFNRGEC | 122 | 114 | 95.8 | 101 | 137 |
| GpH7-A5/GpH7-B3 variant E333_12R/GpL16-k0 (antibody, human IgG1, kappa, heterodimerized IgG1 (He Ab), mutation in one H chain only; also called He Ab) heavy 1: not shown heavy 2: not shown light: DIVMTQSPLSLPVTPGEPASISCQASESLVHSNRNTYLHWYLQKPGQSPQLLIYKVSNRFSGVPDRFSGSGSGTDFTLKISRVEAEDVGVYYCSQNTHVPPTFGQGTKVEIERTVAAPSVFIFPPSDEQLKSGTASVVCLLNNFYPREAKVQWKVDNALQSGNSQESVTEQDSKDSTYSLSSTLTLSKADYEKHKVYACEVTHQGLSSPVTKSFNRGEC | 104 | 110 | 96.7 | 92.2 | 127 |
| GpH7-A5/GpH7-B3 variant E333_18N/GpL16-k0 (antibody, human IgG1, kappa, heterodimerized IgG1 (He Ab), mutation in one H chain only; also called He Ab) heavy 1: not shown heavy 2: not shown light: DIVMTQSPLSLPVTPGEPASISCQASESLVHSNRNTYLHWYLQKPGQSPQLLIYKVSNRFSGVPDRFSGSGSGTDFTLKISRVEAEDVGVYYCSQNTHVPPTFGQGTKVEIERTVAAPSVFIFPPSDEQLKSGTASVVCLLNNFYPREAKVQWKVDNALQSGNSQESVTEQDSKDSTYSLSSTLTLSKADYEKHKVYACEVTHQGLSSPVTKSFNRGEC | 98.2 | 110 | 91.4 | 76.2 | 118 |
| GpH7-A5/GpH7-B3 variant E333_09D/GpL16-k0 (antibody, human IgG1, kappa, heterodimerized IgG1 (He Ab), mutation in one H chain only; also called He Ab) heavy 1: not shown heavy 2: not shown light: DIVMTQSPLSLPVTPGEPASISCQASESLVHSNRNTYLHWYLQKPGQSPQLLIYKVSNRFSGVPDRFSGSGSGTDFTLKISRVEAEDVGVYYCSQNTHVPPTFGQGTKVEIERTVAAPSVFIFPPSDEQLKSGTASVVCLLNNFYPREAKVQWKVDNALQSGNSQESVTEQDSKDSTYSLSSTLTLSKADYEKHKVYACEVTHQGLSSPVTKSFNRGEC | 122 | 119 | 98 | 115 | 141 |
| GpH7-A5/GpH7-B3 variant E333_06M/GpL16-k0 (antibody, human IgG1, kappa, heterodimerized IgG1 (He Ab), mutation in one H chain only; also called He Ab) heavy 1: not shown heavy 2: not shown light: DIVMTQSPLSLPVTPGEPASISCQASESLVHSNRNTYLHWYLQKPGQSPQLLIYKVSNRFSGVPDRFSGSGSGTDFTLKISRVEAEDVGVYYCSQNTHVPPTFGQGTKVEIERTVAAPSVFIFPPSDEQLKSGTASVVCLLNNFYPREAKVQWKVDNALQSGNSQESVTEQDSKDSTYSLSSTLTLSKADYEKHKVYACEVTHQGLSSPVTKSFNRGEC | 110 | 110 | 96.7 | 100 | 132 |
| GpH7-A5/GpH7-B3 variant E333_08L/GpL16-k0 (antibody, human IgG1, kappa, heterodimerized IgG1 (He Ab), mutation in one H chain only; also called He Ab) heavy 1: not shown heavy 2: not shown light: DIVMTQSPLSLPVTPGEPASISCQASESLVHSNRNTYLHWYLQKPGQSPQLLIYKVSNRFSGVPDRFSGSGSGTDFTLKISRVEAEDVGVYYCSQNTHVPPTFGQGTKVEIERTVAAPSVFIFPPSDEQLKSGTASVVCLLNNFYPREAKVQWKVDNALQSGNSQESVTEQDSKDSTYSLSSTLTLSKADYEKHKVYACEVTHQGLSSPVTKSFNRGEC | 123 | 116 | 96.8 | 102 | 140 |
| GpH7-A5/GpH7-B3 variant E333_07I/GpL16-k0 (antibody, human IgG1, kappa, heterodimerized IgG1 (He Ab), mutation in one H chain only; also called He Ab) heavy 1: not shown heavy 2: not shown light: DIVMTQSPLSLPVTPGEPASISCQASESLVHSNRNTYLHWYLQKPGQSPQLLIYKVSNRFSGVPDRFSGSGSGTDFTLKISRVEAEDVGVYYCSQNTHVPPTFGQGTKVEIERTVAAPSVFIFPPSDEQLKSGTASVVCLLNNFYPREAKVQWKVDNALQSGNSQESVTEQDSKDSTYSLSSTLTLSKADYEKHKVYACEVTHQGLSSPVTKSFNRGEC | 124 | 113 | 96.5 | 100 | 142 |
